Here are results for one molecule from article PMC10126157, “High concentrations of soluble endoglin can inhibit BMP9 signaling in non-endothelial cells” (Scientific Reports, 2023).

The target in this test is T1, sENG-Fc (soluble endoglin Fc fusion) (human, UniProt P17813 26-586).
T1 construct: soluble endoglin (ENG, CD105) fused to Fc, recombinant human protein from R&D Systems; Construct limits are known only through the catalogue number; source: bought: R&D Systems (Cat.# 6578-EN), recombinant human protein
T1 sequence (looked up): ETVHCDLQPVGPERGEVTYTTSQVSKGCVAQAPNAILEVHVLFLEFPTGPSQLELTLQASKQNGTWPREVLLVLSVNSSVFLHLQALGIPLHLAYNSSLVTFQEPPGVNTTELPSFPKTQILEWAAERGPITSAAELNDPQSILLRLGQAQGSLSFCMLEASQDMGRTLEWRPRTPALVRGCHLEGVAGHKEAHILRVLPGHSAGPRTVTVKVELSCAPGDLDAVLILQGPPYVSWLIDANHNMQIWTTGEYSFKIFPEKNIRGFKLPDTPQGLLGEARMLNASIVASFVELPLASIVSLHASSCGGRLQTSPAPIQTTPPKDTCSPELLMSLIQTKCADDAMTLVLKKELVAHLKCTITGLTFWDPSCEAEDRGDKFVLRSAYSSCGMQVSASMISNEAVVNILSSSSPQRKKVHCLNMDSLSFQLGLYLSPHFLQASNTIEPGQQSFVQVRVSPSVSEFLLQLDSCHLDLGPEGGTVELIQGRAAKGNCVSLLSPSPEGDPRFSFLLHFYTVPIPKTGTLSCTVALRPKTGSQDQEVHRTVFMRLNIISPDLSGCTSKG
The test can be described thus: ELISA; ActRIIA-Fc coated on MaxiSorp plates (1 ug/mL in PBS, overnight, 4 °C), blocked with 1% BSA; BMP9 (15 ng/mL) added with increasing concentrations of sENG(M), sENG(D) or sENG-Fc; bound BMP9 detected with BMP-9 DuoSet ELISA reagents. Particulars: both partners purified. A general note: In an ELISA, binding on a coated surface is turned into a signal by an enzyme label.

B1: Bone morphogenetic protein 9 (BMP9) (ligand, human, UniProt Q9UK05 320-429, looked up)
chain: SAGAGSHCQKTSLRVNFEDIGWDSWIIAPKEYEAYECKGGCFFPLADDVTPTKHAIVQTLVHLKFPTKVGKACCVPTKLSPISVLYKDDMGVPTLKYHYEGMSVAECGCR
notes: BMP9 (GDF2), recombinant human protein from R&D Systems; source: bought: R&D Systems (Cat.# 3209-BP), recombinant human protein
Turning to B1, the binding result is “binds”.
